Source: patent publication US20070286806A1, “Methods and Compositions for Modulating a Steroid Receptor” (Mount Sinai Hospital, priority 2004, published 2007)

Assays:
PR [1] = biological target: T1, PR (Homo sapiens, UniProt P06401); experiment: GST in vitro pulldown assay with 35S-labeled PSF and GST-PR fusion proteins; assay type: binding; details: 35S-labeled PSF
T1 construct: made in house; host or cells: E. coli BL21(DE3)pLysS (GST-PR); rabbit reticulocyte lysate (35S His-PSF)
T1 sequence (P06401 556-650): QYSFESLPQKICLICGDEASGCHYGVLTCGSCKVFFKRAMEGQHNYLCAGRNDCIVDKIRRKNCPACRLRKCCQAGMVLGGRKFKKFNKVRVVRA
Procedure: (§1) FIG. 3. Mapping PSF and PR interaction site. (A) GST or GST-PR fusion proteins bound to glutathione-sepharose beads were incubated with ^35S-labeled PSF and binding of PSF was assessed by autoradiography. (B) GST or GST-PSF fusion proteins bound to glutathione-sepharose beads were incubated with ^35S-labeled PRB and binding of PRB was assessed by autoradiography. Input represents 10% of the material used for each sample in A and B. (C) GST-PSF fusion proteins used in assay B were separated on SDS gel and stained with commassie blue.
(§2) For immunoprecipitation of the endogenous PR and PSF, T47D cells cultured in 150 mm dishes were lysed in 800 μl NETN buffer containing 150 mM NaCl plus protease inhibitor cocktail. Cell lysate were then incubated with 5 μg of PR or PSF, or control mouse IgG at 4° C. overnight, followed by the addition of 30 μl of protein A/G PLUS-agarose beads (Santa Cruz) for another two hours at 4° C. Resins were washed with NETN containing 250 mM NaCl and eluted with 1×Laemmli buffer. […] Gels were treated with Enhancer (NEN, Boston, US) dried and analyzed by autoradiography. • Cell culture and transient transfection: SHM cells and 293T cells were maintained in DMEM plus 5% FCS (Sigma) as described before (22). […] Luciferase activity was determined by using the luciferin reagent (Promega) according to manufacture's protocol. […]

PR [2] = experiment: as above; assay type: binding; details: 35S-labeled PSF
Procedure: as §1, §2

B1: polypyrimidine tract binding protein-associated splicing factor (protein)
chain: MSRDRFRSRGGGGGGFHRRGGGGGRGGLHDFRSPPPGMGLNQNRGPMGPGPGQSGPKPPIPPPPPHQQQQQPPPQQPPPQQPPPHQPPPHPQPHQQQQPPPPPQDSSKPVVAQGPGPAPGVGSAPPASSSAPPATPPTSGAPPGSGPGPTPTPPPAVTSAPPGAPPPTPPSSGVPTTPPQAGGPPPPPAAVPGPGPGPKQGPGPGGPKGGKMPGGPKPGGGPGLSTPGGHPKPPHRGGGEPRGGRQHHPPYHQQHHQGPPPGGPGGRSEEKISDSEGFKANLSLLRRPGEKTYTQRCRLFVGNLPADITEDEFKRLFAKYGEPGEVFINKGKGFGFIKLESRALAEIAKAELDDTPMRGRQLRVRFATHAAALSVRNLSPYVSNELLEEAFSQFGPIERAVVIVDDRGRSTGKGIVEFASKPAARKAFERCSEGVFLLTTTPRPVIVEPLEQLDDEDGLPEKLAQKNPMYQKERETPPRFAQHGTFEYEYSQRWKSLDEMEKQQREQVEKNMKDAKDKLESEMEDAYHEHQANLLRQDLMRRQEELRRMEELHNQEMQKRKEMQLRQEEERRRREEEMMIRQREMEEQMRRQREESYSRMGYMDPRERDMRMGGGGAMNMGDPYGSGGQKFPPLGGGGGIGYEANPGVPPATMSGSMMGSDMRTERFGQGGAGPVGGQGPRGMGPGTPAGYGRGREEYEGPNKKPRF
notes: expressed from transfected His-PSF vector or in vitro translated
PR [1]
  binding to GST-PR fusion proteins containing the DBD domain: bound strongly
PR [2]
  binding to other segments of PR: did not bind
